How the values were obtained:
[1] = Biotin-PGE2 competition ELISA (prostaglandin selectivity); type: binding
Method: Competition enzyme linked immunosorbent assays were performed to determine prostaglandin binding specificity for antibodies that bind prostaglandin E2, according to at least one of the two following methods.
ELISA plates (Costar 3369, Corning, N.Y.) were coated with 50 μl/well of anti-host Fc IgG (Sigma, St. Louis, Mo.) at 2 μg/ml in PBS (Invitrogen, Carlsbad, Calif.). Following an overnight incubation at 4° C., the plate was blocked with 200 μl Superblock (Pierce #37535, Rockford, Ill.). The IgG samples were diluted to 6 μg/ml in Assay Buffer (10% Superblock in PBS containing 0.05% Surfactamps (Pierce #37535, Rockford, Ill.). The PGE2-biotinamide was diluted to 3 nM in Assay Buffer. A titration curve in Assay Buffer was prepared for the prostaglandins PGA2 (Cayman Chemicals, Ann Arbor, Mich.), PGD2 (Cayman Chemicals, Ann Arbor, Mich.) and PGE2 (Cayman Chemicals, Ann Arbor, Mich.) starting at 300 nM by a 1:10 serial dilution. The reagents were added to tubes at a volume of 50 μl each/tube and preincubated for 1 hour at room temperature. Following the preincubation, the mix was transferred to the blocked plates and allowed to incubate for 1 hour at room temperature. Next, the plates were washed four times with Tween 20-Tris buffered solution (TTBS). Streptavidin polyhrp40 in Assay Buffer (Fitzgerald Industries, Concord, Mass.) at a 1:5000 dilution was then added to the wells and incubated for 45 minutes at room temperature. A final wash step was performed and the plates were developed using a single step TMB system (Sigma #T8665, Sigma, St. Louis, Mo.) and 100 μl/well 2N H2SO4. Plates were read at 450 nm on a Molecular Devices Spectramax plate reader (Sunnyvale, Calif.). […] IC50 number was determined using GraphPad Prism 5 (GraphPad Software, La Jolla, Calif.). The cross reactivity index was then calculated by IC50 of PGE2/IC50 of other prostaglandin(s).

[2] = system: carrageenan-induced paw edema; assay: Carrageenan-induced footpad edema model; type: in vivo, C57.BL/6 mice
Method: Carrageenan-Induced Footpad Edema is an acute rodent model of innate immune function. The in vivo efficacy of mouse anti-PGE2 antibody 2B5-8.0 is assessed in a carragenan-induced paw edema model. The induction of paw inflammation with carrageenan is performed similarly as previously described (Joseph P. Portanova, et al. J. Exp. Med. 184: 883-891 (1996)). Intradermal (ID) injection of an inflammatory agent causes a rapid influx of neutrophils and fluid edema which peaks at approximately 4 hours, followed by an influx of macrophages and monocytes which peaks at approximately 48 hours. C57.BL/6 mice (8-10-week-old, Jackson Laboratories, Bar Harbor, Me.) were injected ID in the rear footpad with 30 μL of either PBS (left) or λ-carrageenen (Sigma Aldrich, St. Louis, Mo.) in PBS (right) at a concentration of 5.0 mg/mL (150 μg/mouse). Rear footpad thickness was measured by Dyer spring caliper model #310-119 at baseline (time=0), and 4 hours post carrageenan challenge. Significant difference for paw thickness was determined by comparing mean paw swelling for each treatment group to vehicle in a Student's two-tailed t-test. Mice were given a dose titration of an anti-PGE2 antibody (2B5-8.0) intraperitonially (IP) 18 hours prior to carrageenan challenge, or Indomethacin, PO 2 hours prior to challenge. The endpoint measured was the difference in paw swelling (edema) between right and left paws 4 hours after treatment.

B1: 2B5-8.0: recombinant anti-PGE2 antibody from solved 2B5 sequence; VH SEQ ID NO 42, VL SEQ ID NO 43 (antibody, V domains shown)
VH: QVQLQQSGPELVRPGSSVKISCKASGYTFTKYWLGWVKQRPGHGLEWIGDIYPGYDYTHYNEKFKDKATLTVDTSSSTAYMQLSSLTSEDSAIYYCARSDGSSTYWGQGTLVTVSA
VL: DVLMTQTPLSLPVSLGDQASISCTSSQNIVHSNGNTYLEWYLQRPGQSPKLLIYKVSNRFSGVPDRFSGSGSGTVFTLKISRVEAEDLGVYYCFQVSHVPYTFGGGTKLEIKR
PG Selectivity in Biotin-PGE2 Competition ELISA (CRI %) PGA2 ([1]; PGA2): 0.21% | PG Selectivity in Biotin-PGE2 Competition ELISA (CRI %) PGD2 ([1]; PGD2): <0.01% | PG Selectivity in Biotin-PGE2 Competition ELISA (CRI %) PGE1 ([1]; PGE1): 28% | Δ Paw Swelling (mm) ([2]; 10 mg/kg, i.p., 18 hours prior to carrageenan, 4 hours post challenge): 0.529 ± 0.04 mm | % Inhibition ([2]; 10 mg/kg, i.p., paw swelling 4 hours post challenge): 38 ± 4.6% | maximal inhibition of paw swelling ([2]; at 10 mg/kg): 40-50%

Source: patent US8624002B2, “Prostaglandin E2 binding proteins and uses thereof” (AbbVie, Inc., priority 2008, dated 2014)
